Experiment [1] relates to H4 cells. In words: α-syn aggregation assay (synT + synphilin co-transfection). It is filed as cell-based. To be noted: isoform co-transfected with synT and synphilin; 24 hours after transfection; vs empty vector. The protocol:
H4 cells were cotransfected with either empty vector or a 14-3-3 isoform along with synT and synphilin. 24 hours after transfection, cells were fixed and stained with a monoclonal antibody against α-syn. Cells that stained for α-syn were scored as positive or negative for α-syn aggregates, with the rater blind to experimental condition. Results reflect three independent experiments with four replicates per experiment. ***p<0.001 (Bonferroni's multiple comparison test).
To evaluate this hypothesis the effect of increased 14-3-3 polypeptide expression on α-syn aggregation was evaluated. In this experiment, the model of McLean et al., in which α-syn/green fluorescent protein (GFP) fusion protein (synT) forms visible aggregates in cells when expressed with synphilin (McLean, P J et al., Neuroscience, 104:901-12, 2001) was used. This system has been used to evaluate the effect of different polypeptides on α-syn aggregation (Kiucken, J., et al, J Biol Chem, 279:4625-31, 2004). Briefly, H4 cells were co-transfected with either empty vector or a vector containing nucleic acid encoding a 14-3-3 isoform, along with synT and synphilin. Twenty-four hours after transfection, cells were fixed and stained with a monoclonal antibody against α-syn. Results are shown in FIG. 3 and reflect three independent experiments with 4 replicates per experiment. […] These are the same 14-3-3 isoforms that were decreased in α-syn transgenic mice (see FIG. 2).
Primers against each of the human 14-3-3 isoforms were designed using Primer3. […] All cells stained for α-syn were scored as positive or negative for α-syn aggregates, with the rater blind to experimental condition. • α-syn toxicity assay H4 cells were transfected with α-syn and either empty vector control or a 14-3-3 isoform using Superfect transfection reagent (Qiagen). 24 hours after transfection, toxicity was measured by the amount of adenylate kinase released into the media using the ToxiLight™ kit (Cambrex). • Creation of stable cell lines Each 14-3-3 isoform was subcloned into the mammalian expression vector mcDNA3.1/V5-His (Invitrogen). […]

The subject of experiment [2] is SK-N-BE(2)-M17 (M17) cells. The experiment is described as follows: Rotenone toxicity in stably transfected cell lines, LDH release. Conditions: for rotenone-induced cell death, % of that in control cells: 1 μM rotenone, LDH release; for rotenone-induced cell death, % of that in control cells / protection against rotenone toxicity (LDH release): 48 hours; for protection against rotenone toxicity (LDH release): rotenone at varying concentrations. It is filed as cell-based. How it is done: Cell lines stably-transfected with either 14-3-3θ or empty vector were treated with varying concentrations of rotenone (0-25 μM) for 24 hours (FIG. 6A), 30 hours (FIG. 6B), or 48 hours (FIG. 6C). Cell death was assayed by LDH release into the culture media. LDH release into media was normalized to total LDH release for each well. […] Rater was blind to experimental condition. n=8 for each experimental condition. *p<0.05, ***p<0.001 (Bonferroni's multiple comparison test).
M17 cell lines stably-transfected with either a 14-3-3 isoform or empty vector were treated with varying concentrations of rotenone (0-25 μM) for 48 hours. Cell death was assayed by LDH release into the culture media. LDH release into media was normalized to total LDH release for each well. […] Results reflect two to three independent experiments with at least two replicates per experiment. *p<0.05, **p<0.01, ***p<0.001 (Bonferroni's multiple comparison test).
Additional studies were performed to evaluate the effect of 14-3-3 polypeptide isoforms in mammalian cells. In these studies, cDNA clones for the 14-3-3 polypeptide β, γ, ε, η, θ, and σ isoforms were subcloned into the mammalian expression vector pcDNA 3.1/V5/His (Invitrogen). The polypeptide expressed from this vector contains the particular 14-3-3 isoform with a V5 and a His6 tag at the C-terminal end. […] SK-N-BE(2)-M17 (M17) cells, a dopaminergic-producing human neuroblastoma cell line, were transfected with each isoform or empty vector using Superfect, and stably-transfected cells were selected for in the presence of G418.
The M17 14-3-3θ clones were examined for their resistance to rotenone (0-25 μM). M17 cell lines stably transfected with either 14-3-3θ or empty vector were treated with rotenone for 24 (FIG. 6A), 30 (FIG. 6B) or 48 hours (FIG. 6C). Cell death was assayed by […] (LDH) release into the culture media using the LDH assay kit from Roche. LDH release into media was normalized to total LDH release for each well. Results reflect three independent experiments with at least two replicates per experiment.
Stable M17 cell lines overexpressing these other isoforms were treated with rotenone at varying concentrations, and then cell death was assayed at 48 hours by LDH release. […]
On the technique in general: LDH leaks from cells whose membrane has failed.

Turning to “14-3-3γ: 14-3-3 polypeptide γ isoform, overexpressed from expression vector”, in experiment [1], the “decrease in the number of H4 cells displaying α-syn aggregates” value (from here on “decrease in the number”) is recorded as 40%. Moreover, in experiment [2] (stable overexpression), the “rotenone-induced cell death, % of that in control cells” value (shortened to “rotenone-induced cell death, % of that”) is 55% and the “protection against rotenone toxicity (LDH release)” value (“protection … (LDH release)” below) is recorded as “prominent reduction in rotenone-induced toxicity”.

B1: 14-3-3ε: 14-3-3 polypeptide ε isoform, overexpressed from expression vector (protein, UniProt P62258 1-255, looked up)
14-3-3 protein epsilon: MDDREDLVYQAKLAEQAERYDEMVESMKKVAGMDVELTVEERNLLSVAYKNVIGARRASWRIISSIEQKEENKGGEDKLKMIREYRQMVETELKLICCDILDVLDKHLIPAANTGESKVFYYKMKGDYHRYLAEFATGNDRKEAAENSLVAYKAASDIAMTELPPTHPIRLGLALNFSVFYYEILNSPDRACRLAKAAFDDAIAELDTLSEESYKDSTLIMQLLRDNLTLWTSDMQGDGEEQNKEALQDVEDENQ
As for B1, in experiment [1], the “decrease in the number” value stood at 40%. In experiment [2] (stable overexpression), the “rotenone-induced cell death, % of that” value is given as 65% and the “protection … (LDH release)” value is listed as “prominent reduction in rotenone-induced toxicity”.

B2: 14-3-3ζ: 14-3-3 polypeptide ζ isoform, overexpressed from expression vector (protein, UniProt P63104 1-245, looked up)
14-3-3 protein zeta/delta: MDKNELVQKAKLAEQAERYDDMAACMKSVTEQGAELSNEERNLLSVAYKNVVGARRSSWRVVSSIEQKTEGAEKKQQMAREYREKIETELRDICNDVLSLLEKFLIPNASQAESKVFYLKMKGDYYRYLAEVAAGDDKKGIVDQSQQAYQEAFEISKKEMQPTHPIRLGLALNFSVFYYEILNSPEKACSLAKTAFDEAIAELDTLSEESYKDSTLIMQLLRDNLTLWTSDTQGDEAEAGEGGEN
Regarding B2, in experiment [2] (stable overexpression), the “rotenone-induced cell death, % of that” value is given as 78% and the “protection … (LDH release)” value is listed as “some protection”.

B3: 14-3-3θ: 14-3-3 polypeptide θ isoform, overexpressed from V5/His-tagged pcDNA3.1 vector (or as transgene in C. elegans) (protein, UniProt P27348 1-245, looked up)
14-3-3 protein theta: MEKTELIQKAKLAEQAERYDDMATCMKAVTEQGAELSNEERNLLSVAYKNVVGGRRSAWRVISSIEQKTDTSDKKLQLIKDYREKVESELRSICTTVLELLDKYLIANATNPESKVFYLKMKGDYFRYLAEVACGDDRKQTIDNSQGAYQEAFDISKKEMQPTHPIRLGLALNFSVFYYEILNNPELACTLAKTAFDEAIAELDTLNEDSYKDSTLIMQLLRDNLTLWTSDSAGEECDAAEGAEN
modifications: V5/His tag
B3: in experiment [1], the “decrease in the number” value is listed as 40%. For the same molecule, the “protection against rotenone at low doses” value in experiment [2] (0.04 and 0.2 μM rotenone) is reported as “Mild protection”. In experiment [2] (1 and 5 μM rotenone), the “protection against rotenone at higher doses” value was “more prominent protection”. Moreover, the “rotenone-induced cell death, % of that” value in experiment [2] (stable overexpression) is recorded as 45%. In addition, in experiment [2] (stable overexpression, rotenone 0-25 μM, 24, 30 or 48 hours), the “resistance to rotenone toxicity compared to control cells (LDH release)” value was “more resistant to rotenone toxicity”.

Values taken from patent publication US7919262B2, “14-3-3 proteins for diagnosis of Parkinson's disease” (The UAB Research Foundation, priority 2007, dated 2011).
